# B1: His-tagged p58 N-terminal domain (amino acids 1–266) (domain or fragment, human, UniProt P49643 1-266, looked up)
# chain: MEFSGRKWRKLRLAGDQRNASYPHCLQFYLQPPSENISLIEFENLAIDRVKLLKSVENLGVSYVKGTEQYQSKLESELRKLKFSYRENLEDEYEPRRRDHISHFILRLAYCQSEELRRWFIQQEMDLLRFRFSILPKDKIQDFLKDSQLQFEAISDEEKTLREQEIVASSPSLSGLKLGFESIYKIPFADALDLFRGRKVYLEDGFAYVPLKDIVAIILNEFRAKLSKALALTARSLPAVQSDERLQPLLNHLSHSYTGQDYSTQG
# Target: purified hXRCC1 protein (human, UniProt P18887 1-633)
# Test: far-Western, overlay or dot blot
# Chain of purified hXRCC1 protein (P18887 whole entry): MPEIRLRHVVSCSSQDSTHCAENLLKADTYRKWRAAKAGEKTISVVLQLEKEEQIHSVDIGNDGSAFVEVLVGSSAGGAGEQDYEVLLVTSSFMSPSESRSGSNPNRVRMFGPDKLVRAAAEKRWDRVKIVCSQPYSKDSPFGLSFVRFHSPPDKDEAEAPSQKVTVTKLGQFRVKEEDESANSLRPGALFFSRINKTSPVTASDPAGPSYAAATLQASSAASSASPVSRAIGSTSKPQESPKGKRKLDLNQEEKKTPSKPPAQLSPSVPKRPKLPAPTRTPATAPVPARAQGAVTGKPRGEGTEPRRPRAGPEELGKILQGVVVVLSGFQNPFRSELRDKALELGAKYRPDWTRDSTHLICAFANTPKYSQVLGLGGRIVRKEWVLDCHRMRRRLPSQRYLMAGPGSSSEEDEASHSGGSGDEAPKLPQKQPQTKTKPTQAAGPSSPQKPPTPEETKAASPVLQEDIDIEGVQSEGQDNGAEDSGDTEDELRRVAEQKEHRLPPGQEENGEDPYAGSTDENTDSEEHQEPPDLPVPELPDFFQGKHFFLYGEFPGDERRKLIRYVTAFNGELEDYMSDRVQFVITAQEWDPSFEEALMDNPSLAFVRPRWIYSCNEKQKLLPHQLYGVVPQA
binder,measurement,value
B1,binding result,binds

# Source: article PMC2691816 (Nucleic Acids Research, 2009)
